Results as given in IntAct's records for PubMed 11779178.

B1: Merlin (Homo sapiens), P35240-3 (parent)
chain: MAGAIASRMSFSSLKRKQPKTFTVRIVTMDAEMEFNCEMKWKGKDLFDLVCRTLGLRETWFFGLQYTIKDTVAWLKMDKKVLDHDVSKEEPVTFHFLAKFYPENAEEELVQEITQHLFFLQVKKQILDEKIYCPPEASVLLASYAVQAKYGDYDPSVHKRGFLAQEELLPKRVINLYQMTPEMWEERITAWYAEHRGRARDEAEMEYLKIAQDLEMYGVNYFAIRNKKGTELLLGVDALGLHIYDPENRLTPKISFPWNEIRNISYSDKEFTIKPLDKKIDVFKFNSSKLRVNKLILQLCIGNHDLFMRRRKADSLEVQQMKAQAREEKARKQMERQRLAREKQMREEAERTRDELERRLLQMKEEATMANEALMRSEETADLLAEKAQITEEEAKLLAQKAAEAEQEMQRIKATAIRTEEEKRLMEQKVLEAEVLALKMAEESERRAKEADQLKQDLQEAREAERRAKQKLLEIATKPTYPPMNPIPAPLPPDIPSFNLIGDSLSFDFKDTDMKRLSMEIEKEKVEYMEKSKHLQEQLNELKTEIEALKLKERETALDILHNENSDRGGSSKHNTIKKPQAQGRRPICI

Variants of: B1
Conditions: with eif3c_human EIF3C

Variant | effect of a mutation on the interaction
Q538P | increasing interaction strength

Variants of: B1
Conditions: with HGS

Variant | effect of a mutation on the interaction
Q538P | disrupting interaction strength

Variants of: B1
Conditions: with HGS
Remark: another data set of the same source

Variant | effect of a mutation on the interaction
Q538P | disrupting interaction strength

Variants of: B1
Conditions: with NF2, P35240-1

Variant | effect of a mutation on the interaction
Q538P | decreasing interaction strength

Variants of: B1
Conditions: with sptb2_human SPTBN1, Q01082
Chain of sptb2_human SPTBN1, Q01082 (Q01082 whole entry): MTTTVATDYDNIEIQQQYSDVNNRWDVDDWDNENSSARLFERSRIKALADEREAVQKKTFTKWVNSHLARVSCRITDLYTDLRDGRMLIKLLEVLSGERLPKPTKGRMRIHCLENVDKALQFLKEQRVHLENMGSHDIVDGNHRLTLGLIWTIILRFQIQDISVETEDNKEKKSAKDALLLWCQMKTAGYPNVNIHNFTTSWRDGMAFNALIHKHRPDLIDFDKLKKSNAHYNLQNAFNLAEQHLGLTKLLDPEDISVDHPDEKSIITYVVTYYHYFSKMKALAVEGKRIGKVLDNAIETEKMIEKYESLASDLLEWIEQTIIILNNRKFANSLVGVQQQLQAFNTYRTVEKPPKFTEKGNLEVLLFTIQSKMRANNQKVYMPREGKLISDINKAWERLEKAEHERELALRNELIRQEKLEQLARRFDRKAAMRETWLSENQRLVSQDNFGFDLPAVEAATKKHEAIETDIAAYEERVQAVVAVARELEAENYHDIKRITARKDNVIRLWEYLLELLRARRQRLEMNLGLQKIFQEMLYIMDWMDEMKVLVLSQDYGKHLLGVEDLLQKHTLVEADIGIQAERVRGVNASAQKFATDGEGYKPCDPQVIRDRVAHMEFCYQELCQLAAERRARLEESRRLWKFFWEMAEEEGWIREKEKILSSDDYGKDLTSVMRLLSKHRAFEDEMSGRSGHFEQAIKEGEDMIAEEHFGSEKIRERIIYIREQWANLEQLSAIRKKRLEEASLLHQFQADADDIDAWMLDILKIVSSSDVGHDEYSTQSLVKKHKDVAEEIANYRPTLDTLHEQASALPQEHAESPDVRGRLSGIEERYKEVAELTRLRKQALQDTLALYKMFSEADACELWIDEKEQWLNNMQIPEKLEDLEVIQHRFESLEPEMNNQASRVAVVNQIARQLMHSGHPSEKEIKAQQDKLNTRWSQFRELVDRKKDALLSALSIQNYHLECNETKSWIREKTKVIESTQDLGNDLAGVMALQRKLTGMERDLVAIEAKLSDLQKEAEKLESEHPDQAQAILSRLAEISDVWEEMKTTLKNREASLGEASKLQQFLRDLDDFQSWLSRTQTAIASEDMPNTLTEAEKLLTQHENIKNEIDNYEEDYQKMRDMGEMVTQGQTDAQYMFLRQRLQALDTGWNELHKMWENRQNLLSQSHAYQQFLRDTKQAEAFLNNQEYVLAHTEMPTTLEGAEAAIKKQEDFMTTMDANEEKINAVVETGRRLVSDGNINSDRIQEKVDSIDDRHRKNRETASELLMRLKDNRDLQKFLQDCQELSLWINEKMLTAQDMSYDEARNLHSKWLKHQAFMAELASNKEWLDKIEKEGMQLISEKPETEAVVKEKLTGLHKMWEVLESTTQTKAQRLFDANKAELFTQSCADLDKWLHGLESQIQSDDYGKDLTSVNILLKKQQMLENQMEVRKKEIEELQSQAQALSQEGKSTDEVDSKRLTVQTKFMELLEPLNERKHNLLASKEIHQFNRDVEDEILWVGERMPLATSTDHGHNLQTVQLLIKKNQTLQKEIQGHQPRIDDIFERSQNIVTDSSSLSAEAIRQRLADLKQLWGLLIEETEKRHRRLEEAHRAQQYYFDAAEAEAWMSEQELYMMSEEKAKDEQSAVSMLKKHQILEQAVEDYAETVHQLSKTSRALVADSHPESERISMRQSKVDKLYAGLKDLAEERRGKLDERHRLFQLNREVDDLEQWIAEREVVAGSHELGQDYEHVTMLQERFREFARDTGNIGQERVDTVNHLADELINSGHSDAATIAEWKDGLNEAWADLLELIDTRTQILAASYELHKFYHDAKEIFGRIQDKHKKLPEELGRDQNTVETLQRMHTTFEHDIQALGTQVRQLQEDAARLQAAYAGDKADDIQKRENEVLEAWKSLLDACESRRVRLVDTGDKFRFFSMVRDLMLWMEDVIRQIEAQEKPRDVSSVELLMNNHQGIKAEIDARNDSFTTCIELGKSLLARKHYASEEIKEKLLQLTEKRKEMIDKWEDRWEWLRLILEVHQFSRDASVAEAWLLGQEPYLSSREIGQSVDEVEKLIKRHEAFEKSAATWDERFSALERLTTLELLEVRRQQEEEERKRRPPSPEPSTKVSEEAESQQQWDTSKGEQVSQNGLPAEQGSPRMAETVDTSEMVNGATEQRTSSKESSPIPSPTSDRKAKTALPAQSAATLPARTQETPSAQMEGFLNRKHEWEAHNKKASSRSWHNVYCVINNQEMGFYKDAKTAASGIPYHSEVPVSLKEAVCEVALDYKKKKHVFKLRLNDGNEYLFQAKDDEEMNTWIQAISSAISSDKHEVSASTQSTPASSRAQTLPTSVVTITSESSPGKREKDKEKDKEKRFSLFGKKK

Variant | effect of a mutation on the interaction
Q538P | disrupting interaction strength
